A short description of this data set: yeast display, Sf9 membrane polyspecificity reagent, FACS + sequencing; frameworks hold sequencing errors. In a few lines:
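In a synthetic yeast display library (Saccharomyces cerevisiae BJ5465), nanobody expression was induced with galactose for 36–48 hours. FACS gates were set low and high (top ~1%) using anti-HA fluorescence for expression and streptavidin fluorescence for binding of the Sf9 membrane reagent. Each polyreactivity label is drawn from the gate of origin.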
With “QVHLVESGGGLLQAGGSLPLSCAASGSIFYSYAMGWYRQAPGKVRELVAVISWSGGSTYYADSVKGRFTISRDNAKNTVYLQMNSLKPEDTAVYYCAADQGWEFDYWGQCTQVTVSS”, the “polyreactivity (PSR sort gate)” value is on record as “low polyreactivity”. To “QVQLVESGGGLVQAGGSLRLSCSASGRTLGRNAMGWYRPAPGKERELVAAISWGGGDTSYADSVKGRFTISRDNAKNTVYLQMNSLKPEDTAVYYCNRYYTPYRRWGYDYWGQGTQVTVSS” belongs “high polyreactivity”; to “QVQLVESGGGLVQAGGSLRLSCAASGSTFRYYGMGWYRQAPGKERELVAAISNGDSTNYADSVKGRFTISRDNAKNTVYLQMNSLKPEDTAVYYCATERYSYRVYGGITTFEYWGQGSQVTVSS”, “high polyreactivity”; to “QVQLVESGGGLVQAGGSLRLSCAASGSIFSPYAMGWYRQAPGKERELVAAISYGVGNTYYADSVKGRFTISRDNAKNTVYLQMNSLKPEDTAVYYCAAEEYDYVYPHYFTKGYYWGQGTQVTVSS”, “high polyreactivity”. Under “QVQLVESGGGIVQAGGSLRLSCAASGRILSSYAMGWYRQAPGKERELVARISYSGGRTYYADSVKGRFTISRDNAKNTVYLQMNSQKPEDTAVYYCAAVSRVHFSYIYDYWGQGTQVTVSS” stands “high polyreactivity”; under “QVQLQESGGGLVQAGGSLRLSCAASGSISRYYDMGLYRQAPGKEREFVAGISGGAITYYADSVKGRFTISRDNAKNTVYLQMNSLKPVDTAVYYCAADTGVYQYHSYWGQGTQVTVSS”, “low polyreactivity”; under “QVQLVESGGGLVQAGCSLRLSCAASGSIFSYYDMGSYRQAPGKERELVAGISRGGSTNYADSVKGRFTISRDNAKNTVYLQMNILKPEDTAVYYCNADQSSRTYPFRLSRRSLLYGYWGLGTQVTVSS”, “low polyreactivity”. To “QVQLVESGGGLVQAGGSLRLSCAASGSTFHGNAMGWYRQAPGKERELVAAISRSGGSTYYADSVKGRFTISRDNAKNTVYLQMNSLKPEDTAVYYCAAETVYKWWYDYYYWGQGTQVTVSS” belongs “high polyreactivity”. For “QVQLVESGGGLVQAGGSLRLSCAASGRTFVRNTMGWYRQAPGKEREFVAAISRSGGNTNYADSVKGRFTISRDNAKNTVYLQMNSLKPEDTAVYYCATRAGYQVYPNKMNYWGQGTQVTVSS”, the “polyreactivity (PSR sort gate)” value is recorded as “high polyreactivity”.

For the sequence “QFQLVESGGGLVQAGGSLRLSCAASGSTFITNAMGCYRQAPGKERELVASITRGAGSTYYADSVKGRITISRDNAKNTVYLQMNSLKPEDTAVYYCRLAPRYRKGGYWGQGTQVTVSS”, the “polyreactivity (PSR sort gate)” value is listed as “high polyreactivity”. To “QVQLVESGGGLVQAGGSLRLSCAASGSNFAYYTMGWYRPAPGKERELVAAITSGGSTYYADSVKGRFTISRDNAKNTVYLQMNSLKPEDTAVYYCATRHSVGRYGMDSWGQGTQVTVSS” belongs “high polyreactivity”; to “QVQLVESGGGLVQAGGSLRLSCAASGFIIFDYAMGWYRQAPGKESELVAAITSGGSTDYADSVKGRFTLSRDNAKNTVYLQMNSLKPEDTAVYYCAAVYGSVSRYDYWGQGTQVTVSA”, “low polyreactivity”. For “QVQLVESGGGLVQAGGSLRLSCAASGSIFDTNAMGWYRQAPGKERELVAAINDSGGSTDYADSVKGRFTISRDNAKNTVYLQMNSLKPEDTAVYYCAADIYYTGYNGPEYYWVGMDYWGQGTQVTVSS”, the “polyreactivity (PSR sort gate)” value is on record as “low polyreactivity”. Take “QVQLVESGGGLVQAGGSLRLSCAASGSTFVSYAMGWYRQAPGKEREMVASISSGDSTYADSVKGRFTISRDNAKNTVYLQMNSLKREDTAVYYCNVGNEGSYGFPVTYDYWGQGSQVTVSS”: the “polyreactivity (PSR sort gate)” value is “low polyreactivity”.

In the case of “QVQLVESGGGLVQAGGSLRLTCAASGRIFIYYAMGWYRQAPGKERELVAAISWGGGRTYYADSVKGRFTISRDNAKNTVYLQMNSLKPEDTAVYYCAAGVYTGQHEYDYWGQGTQVTVSS”, the “polyreactivity (PSR sort gate)” value is given as “low polyreactivity”. Turning to “QVQLVESGGGLVQAGGSLRLSCAASGRIFSVYSMGWYRQAPGKERELVAAIRSGDRTNYADSVKGRFTISRDNAKNTVYLQMISLKPEVTAVYYCAAVRYPNWYDYWGHGTQVTVSS”, the “polyreactivity (PSR sort gate)” value is recorded as “high polyreactivity”.

With “QVQLVESGGGLVHAGGSLRLSCAASGSIFDFNAMGWYRQVPGKERELVAAITSGGSTNYADSVKGRFTISRDNAKNTVYLQMNSLKPEDTAVYYCAARPARGASQGGYVRPWWYDSWGQGTQVTVSS”, the “polyreactivity (PSR sort gate)” value is on record as “low polyreactivity”.

Consider “QVQLVESGGCLVQAGGTLRLSCAASGSILNSYALGWYRQAPGKERELVAAIDNRGGSTHYADSVKGRFTISRDNAKNTVYLQMNSLKPEDTAVYYCAKRFYGSVGYWRYYYWGQGTQVTVSS”, for which the “polyreactivity (PSR sort gate)” value is on record as “low polyreactivity”. In the case of “QVQLVESGGGLVQAGGSRRLSCAASGSISNRYAMGWYRPAPGKEREFVARIRRRGGSTNYADSVKGRFTISRDNAKKTVYLQMNSLKPEDTAVYYCNAYPYQLDYDYWGQGTQVTVSS”, the “polyreactivity (PSR sort gate)” value is “high polyreactivity”.

As to “QVQLVESGGGLVQARGSLRLSCAASGRIFSYNDMGWYRQAPGTERELVAVISIRGGGTYYADSVKGRFTISRDNAKNTVYFQMNSLKPEDTAVYYCNAEYVTFGEEYGYWGQGTQVTVSS”, the “polyreactivity (PSR sort gate)” value is listed as “low polyreactivity”. To “QVQLVESGGGLVQAGGSLRLSCAASGRTFGKYAMGWYRQAPGKERELVATITRTARTNYADSVKGRFTNSRDNAKNTVYFQMNSLKPEDTAVYYCAKGWPAIYGTYDYWGQGTQVTVSS” belongs “high polyreactivity”.

(Values after the nanobody polyreactivity screen of Harvey et al. (2022).)
